Experiment [1] concerns the target HLA-A*0201 (human). Kind of experiment: competition with 125I probe peptide on purified HLA, gel filtration. As to conditions: remark: other sources report otherwise.
For experiment [2], the target named is HLA-A*0203 (human). Described as above. The settings on record: remark: other sources report otherwise.
In a further experiment the target is HLA-A*0301 (human). The settings on record: remark: other sources report otherwise.
Experiment [3] has as its target HLA-A*0202 (human). The experiment in a line: competition with 125I probe peptide on purified HLA, gel filtration. As to conditions: remark: other sources report otherwise.
The target in experiment [4] is HLA-A*0201 (human). As to conditions: remark: other sources report otherwise.
The target in experiment [5] is HLA-A*0202 (human). As to conditions: remark: other sources report otherwise.
In experiment [6] the target is HLA-A*0206 (human). As to conditions: remark: other sources report otherwise.
For experiment [7], the target named is HLA-A*6802 (human). As to conditions: remark: other sources report otherwise.
The target in experiment [8] is HLA-A*0202 (human). The settings on record: remark: other sources report otherwise. The source holds these as a separate data set.
The target in experiment [9] is HLA-A*0206 (human). The experiment in a line: competition with 125I-labeled probe peptide for purified HLA, gel filtration. As to conditions: remark: other sources report otherwise.
Experiment [10] has as its target HLA-A*6802 (human). The experiment is described as above. The settings on record: remark: other sources report otherwise.
For experiment [11], the target named is HLA-A*2401 (human).
The target of experiment [12] is HLA-A*0206 (human). The experiment in a line: inhibition of 125I probe peptide binding to purified HLA. As to conditions: remark: other sources report otherwise.
For experiment [13], the target named is HLA-A*6802 (human). The experiment is described as above. As to conditions: remark: other sources report otherwise.
Experiment [14] has as its target HLA-A*0206 (human). The experiment in a line: competition with 125I probe peptide on purified HLA, gel filtration. As to conditions: remark: other sources report otherwise.
Experiment [15] concerns the target HLA-A*6802 (human). Described as above. As to conditions: remark: other sources report otherwise.
For experiment [16], the target named is HLA-A*0201 (human). Kind of experiment: inhibition of 125I probe peptide binding to purified HLA, gel filtration. As to conditions: remark: other sources report otherwise. A general note: SEC sorts molecules by how far they enter the pores of the column.
The target of experiment [17] is HLA-A*6802 (human). The experiment is described as above. The settings on record: remark: other sources report otherwise.
Experiment [18] concerns the target HLA-A*0202 (human). As to conditions: remark: other sources report otherwise. This is another data set of the same source.
The target in experiment [19] is HLA-A*0203 (human). As to conditions: remark: other sources report otherwise.
In experiment [20] the target is HLA-A*0201 (human). The experiment in a line: inhibition of 125I probe peptide binding to purified HLA. The settings on record: remark: other sources report otherwise.
The target in experiment [21] is HLA-A*0203 (human). The description is as above. The settings on record: remark: other sources report otherwise.
Experiment [22] deals with HLA-A*0202 (human). The experiment in a line: inhibition of 125I probe peptide binding to purified HLA, gel filtration. As to conditions: remark: other sources report otherwise.
In experiment [23] the target is HLA-A*0203 (human). The description is as above. The settings on record: remark: other sources report otherwise.
In experiment [24] the target is HLA-A*0206 (human). The experiment is described as above. The settings on record: remark: other sources report otherwise.
Experiment [25] has as its target HLA-A*2401 (human). As to conditions: scale: ratio.
Experiment [26] deals with HLA-A*0202 (human). Kind of experiment: competition with 125I-labeled probe peptide for purified HLA, gel filtration. The settings on record: remark: other sources report otherwise.
Experiment [27] deals with HLA-A*2401 (human). The source holds these as a separate data set.
In experiment [28] the target is HLA-A*0203 (human). As to conditions: remark: other sources report otherwise. The source holds these as a separate data set.
Experiment [29] addresses HLA-A*0201 (human). The experiment in a line: competition with 125I-labelled probe peptide on purified HLA. As to conditions: remark: other sources report otherwise.
Experiment [30] addresses HLA-A*0206 (human). As to conditions: remark: other sources report otherwise. This is another data set of the same source.

These results are taken from patent US20040037843A1.

Where two headings read alike, the source gives them in different places.

Regarding ALDVYNGLL [Peptide 1177.02 … (PAP.299)], the IC50 (usually the concentration that inhibits the measured activity by half) came to 73 nM in the experiment with HLA-A*0201 (human) [1] and 256 nM with HLA-A*0203 (human) [2].
Turning to VTKFMLCAGR [PSA 188 10-mer peptide …], the relative binding ratio (IC50 of standard peptide / IC50 of test peptide) with HLA-A*0301 (human) was found to be 0.0003.
Regarding GVSIWNPIV [Peptide 60.0207 … (PAP.128.V9)], the IC50 with HLA-A*0201 (human) [1] amounted to 455 nM; with HLA-A*0202 (human) [3], 269 nM; with HLA-A*0203 (human) [2], 909 nM.
With SLQCVSLHLL [peptide 1419.66 (HuK2.170, 10-mer)], the IC50 is 263 nM in the experiment with HLA-A*0201 (human) [4], 4.9 nM in the experiment with HLA-A*0202 (human) [5], 446 nM with HLA-A*0206 (human) [6] and 5000 nM with HLA-A*6802 (human) [7].
Regarding ALFPPEGVSV [peptide 1419.61, PAP.122.V10], the IC50 with HLA-A*0202 (human) [8] came out at 1 nM.
In the case of GLPEGDLVYV [Peptide 1389.22], the IC50 is 112 nM with HLA-A*0206 (human) [9] and 964 nM with HLA-A*6802 (human) [10].
Turning to SWPQGFGQL [PAP peptide, position 62, 9 amino acids (A24 supermotif)], the relative binding ratio (IC50 of standard peptide / IC50 of test peptide) with HLA-A*2401 (human) [11] amounted to 0.0013.
As to SYKHEQVYI [PAP peptide, position 96, 9 amino acids (A24 supermotif)], in the experiment with HLA-A*2401 (human) [11], the relative binding ratio (IC50 of standard peptide / IC50 of test peptide) was determined as 0.26.
For VLAKELKFVV [Peptide 63.0034 … (PAP.30.V10)], the IC50 in the experiment with HLA-A*0206 (human) [12] was 86 nM; with HLA-A*6802 (human) [13] it was 2290 nM.
Consider GVSIWNPILV [Peptide 63.0041 … (PAP.128.V10)], for which the IC50 worked out at 250 nM in the experiment with HLA-A*0201 (human) [1], 94 nM in the experiment with HLA-A*0202 (human) [3], 451 nM with HLA-A*0206 (human) [14] and 2290 nM in the experiment with HLA-A*6802 (human) [15].
For the molecule KLRELSELSV [Peptide 63.0048 … (PAP.234.V10)], the results for the IC50 in the experiment with HLA-A*0201 (human) [1] and in the experiment with HLA-A*6802 (human) [15] were 263 nM and 1820 nM, respectively.
In the case of LMLLRLSEPA [Peptide 63.0014 (PSA.117)], the IC50 in the experiment with HLA-A*0201 (human) [16] was 200 nM; in the experiment with HLA-A*6802 (human) [17] it was 5000 nM.
HLLSNDMCV [peptide 1418.20, HuK2.177.V9]: the IC50 in the experiment with HLA-A*0202 (human) [18] is 102 nM; in the experiment with HLA-A*0203 (human) [19] it was 278 nM.
QLMFLERAFI [Peptide 1126.16]: the IC50 with HLA-A*6802 (human) [10] is 30 nM.
On to TLMSAMTNLA [Peptide 20.0312 … (PAP.112)], for which the IC50 with HLA-A*0201 (human) [20] was 385 nM; in the experiment with HLA-A*0203 (human) [21], 37 nM; in the experiment with HLA-A*0206 (human) [12] it was 3700 nM; with HLA-A*6802 (human) [13] it was 6670 nM.
In the case of RAVCGGVLVH [PSA peptide, position 43, 10 amino acids], in the experiment with HLA-A*0301 (human), the relative binding ratio (IC50 of standard peptide / IC50 of test peptide) was found to be 0.011.
As to TLSVTWIGV [Peptide 60.0217 (PSA.5.V9)], the concentration for half-maximal inhibition (IC50) in the experiment with HLA-A*0202 (human) [22] turned out to be 4.9 nM; with HLA-A*0203 (human) [23], 40 nM; in the experiment with HLA-A*0206 (human) [24], 712 nM; with HLA-A*6802 (human) [17], 229 nM.
In the case of SLLAKELKFV [Peptide 63.0033 … (PAP.29.L2)], the IC50 came to 3.8 nM with HLA-A*0203 (human) [21] and 6670 nM in the experiment with HLA-A*6802 (human) [13].
In the case of PLLLWQPIPV [Peptide 63.0042 … (PAP.134.L2)], the figures for the IC50 with HLA-A*0201 (human) [1], with HLA-A*0202 (human) [3] and with HLA-A*0206 (human) [14] were 238 nM, 47 nM and 336 nM, respectively.
For VFRHGDRSPI [PAP (Prostatic Acid Phosphatase) peptide, position 41, 10 amino acids], the relative binding ratio (A*2401) with HLA-A*2401 (human) [25] amounted to 0.0005.
Consider VLAGGFFLL [Peptide 1126.10], for which the IC50 with HLA-A*0202 (human) [26] came out at 0.2 nM.
As for HYRKWIKDTI [Kallikrein position 248, 10 amino acids (…)], in the experiment with HLA-A*2401 (human) [27], the relative binding ratio (IC50 of standard peptide / IC50 of test peptide) was 0.055.
On to VYNGLLPPY [PAP (Prostatic Acid Phosphatase) peptide, position 302, 9 amino acids], for which the relative binding ratio (A*2401) in the experiment with HLA-A*2401 (human) [25] was found to be 0.032.
Regarding HLLSNDMCARV [peptide 1418.67 (HuK2.177.V11)], the IC50 in the experiment with HLA-A*0202 (human) [5] was 1.3 nM; with HLA-A*0203 (human) [28], 5.3 nM; with HLA-A*0206 (human) [6] it was 37 nM; with HLA-A*6802 (human) [7] it was 860 nM.
In the case of GWGSIEPEEF [Kallikrein position 156, 10 amino acids (…)], in the experiment with HLA-A*2401 (human) [27], the relative binding ratio (IC50 of standard peptide / IC50 of test peptide) amounted to 0.0001.
Turning to RYRKFLNESY [PAP peptide, position 88, 10 amino acids (A24 supermotif)], the relative binding ratio (IC50 of standard peptide / IC50 of test peptide) with HLA-A*2401 (human) [11] is 0.0057.
For GLHGQDLFGI [peptide 1166.11, PAP.196], the IC50 with HLA-A*0202 (human) [8] was found to be 0.9 nM.
Take ALFPPEGVSI [Peptide 1419.6 … (PAP.122)]: the IC50 in the experiment with HLA-A*0201 (human) [1] was 278 nM; with HLA-A*0203 (human) [2] it was 133 nM; with HLA-A*0206 (human) [14], 2640 nM.
Molecule MLLRLSEPAEV [Peptide 1389.12 (PSA.118.V11)] registered an IC50 with HLA-A*0203 (human) [23] of 115 nM.
With ALFDIESKV [Peptide 1129.08], the IC50 in the experiment with HLA-A*0202 (human) [26] worked out at 0.7 nM.
Regarding LLFFWLDRSV [peptide 1097.09, PAP.21], the IC50 with HLA-A*0202 (human) [8] was found to be 0.6 nM.
For the molecule WVLTAAHCI [PSA 55, 9 amino acids], the relative binding ratio with HLA-A*0201 (human) [29] was 0.0008.
For the molecule SLQCVSLHL [peptide 60.0191 (HuK2.170, 9-mer)], the concentration for half-maximal inhibition (IC50) with HLA-A*0201 (human) [4] came to 500 nM; with HLA-A*0202 (human) [5] it was 51 nM; with HLA-A*0203 (human) [28] it was 417 nM; with HLA-A*6802 (human) [7], 2580 nM.
In the experiment with HLA-A*0206 (human) [30], FMLCAGLWV [peptide 1418.22, HuK2.195.V9] showed an IC50 of 51 nM.
In the case of RMMNDQLMFL [Peptide 1126.06], the IC50 in the experiment with HLA-A*0206 (human) [9] turned out to be 40 nM.
In the case of IWSKVYDPL [PAP position 205, 9 amino acids (…)], the relative binding ratio (IC50 of standard peptide / IC50 of test peptide) with HLA-A*2401 (human) [27] stood at 0.0024.
Turning to KVTKFMLCV [Peptide 60.0220 (PSA.187.V9)], the IC50 with HLA-A*0201 (human) [16] worked out at 69 nM; in the experiment with HLA-A*0202 (human) [22], 518 nM; in the experiment with HLA-A*0206 (human) [24] it was 128 nM.
As to SLHLLSNDMCV [peptide 1418.66 (HuK2.175.V11)], the half-inhibitory concentration (IC50) came to 8.6 nM in the experiment with HLA-A*0201 (human) [4]; 0.8 nM with HLA-A*0202 (human) [5]; 10 nM with HLA-A*0203 (human) [28]; 2310 nM with HLA-A*0206 (human) [6]; 2160 nM with HLA-A*6802 (human) [7].
